Our source for the Kd values is paper PMC8938331 (Molecular Metabolism, 2022).

Assay [1] has as its target T1, Recombinant mouse MD2 (Beijing ABIOCENTER) (mouse, UniProt Q9JHF9 19-160).
T1 sequence (looked up): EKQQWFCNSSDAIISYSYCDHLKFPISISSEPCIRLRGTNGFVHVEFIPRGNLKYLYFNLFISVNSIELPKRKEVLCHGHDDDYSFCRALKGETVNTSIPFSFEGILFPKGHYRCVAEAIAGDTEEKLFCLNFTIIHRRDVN
Kind of assay: SPR. (In general: Surface plasmon resonance follows binding to a sensor surface in real time, without labels.)

Assay [2] deals with T2, Recombinant mouse TLR4 (R&D system) (mouse, UniProt Q9QUK6 26-638).
T2 sequence (looked up): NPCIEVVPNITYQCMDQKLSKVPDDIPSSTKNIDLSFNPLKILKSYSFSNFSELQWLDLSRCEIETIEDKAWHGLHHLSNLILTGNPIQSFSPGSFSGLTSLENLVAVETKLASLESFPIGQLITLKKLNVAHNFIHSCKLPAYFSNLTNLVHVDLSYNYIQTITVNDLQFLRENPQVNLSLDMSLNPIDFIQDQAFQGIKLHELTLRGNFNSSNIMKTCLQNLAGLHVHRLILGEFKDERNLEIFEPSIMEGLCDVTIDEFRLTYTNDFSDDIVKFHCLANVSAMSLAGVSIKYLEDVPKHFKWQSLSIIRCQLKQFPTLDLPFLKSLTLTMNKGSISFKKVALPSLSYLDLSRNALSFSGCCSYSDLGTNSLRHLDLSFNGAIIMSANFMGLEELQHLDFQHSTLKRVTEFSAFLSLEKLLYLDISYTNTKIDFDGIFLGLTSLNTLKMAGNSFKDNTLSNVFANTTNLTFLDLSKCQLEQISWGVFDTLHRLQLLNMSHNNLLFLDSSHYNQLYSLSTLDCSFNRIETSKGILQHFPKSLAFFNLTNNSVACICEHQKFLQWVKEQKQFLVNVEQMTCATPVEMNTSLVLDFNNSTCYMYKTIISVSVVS
Kind of assay: SPR.

B1: Mouse serum amyloid A1 (residues 19-122), recombinant (natural protein, UniProt P05366 19-122, looked up)
chain: GGFFSFVHEAFQGAGDMWRAYTDMKEANWKNSDKYFHARGNYDAAQRGPGGVWAAEKISDGREAFQEFFGRGHEDTIADQEANRHGRSGKDPNYYRPPGLPDKY
Broadly, the Kd is the equilibrium constant for the complex coming apart. Take B1: the Kd came out at 123 nM in assay [1] and 497 nM in assay [2].
